# Laboratory results: the DeepSol protein solubility set
# Experiment: soluble on expression in E. coli; label from the status in PepcDB or PDB records
row,Sequence,soluble on expression in E. coli
1,MDDILSAALAESGLDFLCQQSSPTPSTSGSIHDDAGQSFSNNTHTPSVSQFFDETSNDSHSSSAYYTPMATPFVSTEDGGVPTSFFGMDEEDGGCTIMTTAGTSGSNNIDGIEDAGGGMYYPHVKVIPRKHTAPTVNQSEPSTPTVTIVPKKEDPLFETNTADSPTPSGDTSTTASYEGNDGLEDQETTSDRQNPMFVQTARSTDFATKKNQMAEQAHFLRFSVFWQKSGRLDTPSTSATVSPHITSSLTQRSHTSSPASSASEGTVVPPRKKGLPITTGSIVKRTVQTKDGLQTQYLKAFVNENGEKIYKLLSPVAASAVARGTLPPGMGRGGSTIGRGGTMVNKNGERLMVVKNHVGPNGQMLVKRMVSPAGTRIVANGGQGRGQPIYRGT,not soluble
2,MDDWKCYDFEKIKRFEKCENPATSCVKKFVHPTLPNDIPISINLQWSPWSECNDRTQTRTGQCFIRLERQLDDSDGLPENWSWLRKLNTMEKHLAFRDGVPLFNGLLASWLYEVESLESCLDTELGPKSKLSGYDNFFGNVLTSLFSNKTISGIKMSDNAFKYCIRTKTLDETNDALIGTYTEDKRTC,not soluble
3,MDELTAFNQCLAWLTHTTALPEHLDGLVLCGNSLPATATAAGQLAQDYQLPLLIIAGGVGHATKYLRQNLNLPKSQASEAELMATLVRKTGYQGSIRLDKTSTNTGSNATHARALAPTDWRHVLLVQDPLLARRTTLTFSANWSNANFIRYAPATLQLNRLQPMQFTPNTIVAGWQPAYFTELLLGEFQRLVDTPTGYGPRGQGFIAHVDIPEEVLAAARYLQSQSLHRQRLEHHHHHH,soluble
4,MDFKHLTQFKDIIELDKRPVKLDERETFNVSWGIDENYQVGAAISIASILENNKQNKFTFHIIADYLDKEYIELLSQLATKYQTVIKLYHIDSEPLKALPQSNIWPVSIYYRLLSFDYFSARLDSLLYLDADIVCKGSLNELIALEFKDEYGAVVIDVDAMQSKSAERLCNEDFNGSYFNSGVMYINLREWLKQRLTEKFFDLLSDESIIKKLKYPDQDILNLMFLHHAKILPRKYNCIYTIKSEFEEKNSEYYTRFINDDTVFIHYTGITKPWHDWANYASADYFRNIYNISPWRNIPYKKAVKKHEYKEKYKHLLYQKKFLDGVFTAIKYNVMKG,not soluble
5,MDFLNDFDPSDDENNCKHQEKPTYLPFKPNFHEKYWYRNALKENQTATAITEIDLFRVADCYHNGDFECAENILTGLRESTKNNRTHEIMLIDSLLQCSIKKTSELSSPETSISLQFLSYYESILVDFGDQIQFLRTKAFLLSKLPFTSNYQKEFKNTMALLCQLCGSFENWQLFEIGSKYFTKLEMFGLKLKMKKVLKYEIDHSKGFIQEKLKKRLEKITKELNELEGELESNIIESIHSSINSHKDTTTVESTPNSEFRAHESRSKNKLIPVSDQPATIEDFFHRFPFLSF,not soluble
6,MDFSEASTSGDRVNGFAKPFPPKPREGAPPPAPPLAPGASTSQAPPPLQPPPVIESAEKFYVPGVEEKSKFRILSQQVEISNLNISTRSFNVRTEIVLLPCEKSLYQLDLHIGKCSLLPNEVPGSASKVTLNGVECEYSRRDFWKDLAQEKSISSLEPVLYEKLAENDYELQILIPKEVRKKIKHRKAVRLRVDTVVRDPPRGLQFVDFNEHDCHVFTYHTPHISGAREWTVCLDEPDQLALWELTFELEPHLVPVASGELEEKREVSENGKIRYKFHQTVPTSACNIGWAIGRFKLEPHPESPTIYTFSLPGLEPFVNHTTMYLDKMVEFLEEKLSCRFPYPTLKVVFVDQCTEEIQVYSSLLIVPTAMLYHKKIIDVVQEARQKLIFSIALQFFGCLISPAQWWHWWIPVSIARFLTSLYVETKLGTAEARWQLKRAMDDVCDYEHQWGKIVLSPPEPTKKLPLHVDPRHEYTASPLYVEAMLKKGFLTMRMLQRRIGLEPFMRVLHRVLTVGLDMSEKKTTPAAWRHLLTTTESFFRSVISVTGKEIPSFLSQFVRTGGHAAFAVKFDFNRKRNIVEIEIKQDDTEGNGRTQYTGPLSVVVQEVDGAFTHTIQIDGAVSHAEISCHSKGRKQRKKKVPLLTGEEIEIDLTNMDAESPILWLRIDPDYLLIREITISQPMFHWEYMLRYERDVIAQMEALERIQALPSAHSRSVIVDAVANEKFFYRIRYRAAFVLTFVQNRKSEALTVGTPVLINMFRESFGSKAATNIPRSNNFVVTAQNLQQYFVMQALPQAIARLRRQSGECHEDVQPFLLDLIKFNDNSTNRYSDDFYRAALYNSLASSVFPHDALPCHVELPENLSNDVRVLIKEFTYALNMDTVSPSWGRVVGAAALTGLYQLQKCGYLPLDSQLLWTFSHPNCCVQMRRCAITLIIDRIVNDPHAADTRMLDLSRILELAELEQDPSIRRMIPRLLAQTPPTIFGSENAANTAETAERLWKLCTNSSIDSCIRSGFLDVYYSLYALGAPPALGGPEESVGIHRAYVTVPNAASTFATSQWHNSGYEAARRSPPRRDFGDETMNLMQ,soluble
7,MDGEELREDLKEKGKTMDNDLKKSLKEAPSESYCYVLINPYVLDKDVREVDLATFLSSIFYVGKGKGERAMAYFKDACGNIQGSRKLTTIDQAWNKKGFVYKHIIWRPIIENLALAREAAMIFFFKNLAGKSNFTNKYNGSFKGESAFWSREEKCNYGVYLLETIHRSIQTNGCETVKKEDVAPRAAIQQSPRL,not soluble
8,MDGEKSGNRELYTKRVYEYDQVINQVLKHEENILSLIKKDTFGAAYKRLVLADEMIYLATLYLAKFRLSVALLGGKNENILNEARKTLYKPIIYLEEIVTDLIDAPFSEYEEGVDRISKITEKQRYYLIRKLGLVINLVIDAYGENTKWRWSFIDIEARFAVVAKNIMDLKEISQTGLNPHAEDYDTVIYHLRLVKKLFTKAADKYREKYEIVTNNISDFRTAILFLEGLRRVHMVLNEHREVEEIKRKIEIWKDKMEKDLKQKDKPKK,not soluble
9,MDGISLYDDCVMLAYNKEVRRNCLPFTCGENDLDDFFLNDADLYADELLGKTYCWVTTEIPHRIVALFTLSNDSIKTRLISPNDKNRLQRNIVNPKRGRSYPAVLIGRLGVNLEYQGTSSHVGRQLMAFIKDWFRHEDNKTGCRFIVVDAYNEEKILRYYERNGFVPLYKTDVIEKQYYDIPQDEPLKTRLLYFDLKKD,not soluble
10,MDGVVIKNTGSQYLVRCTDGTELYCMAKGNLRLKGIRSTNPVTVGDRVEIVPASQDGQPAYIKRIHPRRNYIIRRASNLSKESHILGANLDAAVLVCTINDPVTTTVFIDRFLATAEAYRVPVILVFNKIDCYTQEDRLQLDRLSAVYTAIGYPCCHVSAITGEGLPDLKSLLDGKLTLLAGHSGVGKSSLINALIPHADLRTGAISQAHHTGMHTTTFSQMIDFPDLSPGSALIDTPGIKGFGTLEMGEYEVSHYFPEIFAASKGCRFGNCTHTHEPGCAVLEALRRGEIAESRYISYLSILEDENAERYRPEY,not soluble
11,MDHPDPNKWADCVHCGMCLEACPTYELTGHEQQSPRGRVHLIKSVAEGKLEVNEAFADPVFTCLDCRACETACPADVEVGGLIEEARGQIRQALPLEHHHHHH,soluble
12,MDIFSGLFTQVNNNNEEDLRVELQNMKPGEGVIRAEVGPSGVATFKKYFLQDGKLQFEIVKHPI,not soluble
13,MDIGINSDPPPRDWQLEKVVELSRAGIRPPTAGNREAIEAATGRPWTEWTTHDGELTGHGYAAVVNKGREEGQHYRQLGLLQAGCPTAESIYVRASPLQRTRATAQALVDGAFPGCGVAIHYANGDADPLFQTDKFAATQTDPARQLAAVKEKAGDLAQRRQALAPTIQLLKQAVCQADKPCPIFDTPWRVEQSKSGKTTISGLSVMANMVETLRLGWSENLPLSQLAWGKIAQASQITALLPLLTENYDLSNDVLYTAQKRGSVLLNAMLDGVKPEASPNVRWLLLVAHDTNIAMVRTLMNFSWQLPGYSRGNIPPGSSLVLERWRDAKSGERYLRVYFQAQGLDDLRRLQTPDAQHPMLRQEWRQPGCRQTDVGTLCPFQAAITALGQRIDRPSAPAVAMVLPKLAAALEHHHHHH,soluble
14,MDIKVVKGSITEVDADVIVNPANSRGLMGGGVAVVIKRLGGEEIEREAVEKAPIPVGSAVLTTAGKLKFKGVIHAPTMEEPAMPSSEEKVRKATRAALELADKECFKIVAIPGMGTGVGGVPKEVAARAMVEEIRKFEPKCLEKVILVDIDEEMVEAWEKVLGLRLEHHHHHH,soluble
15,MDITLRTLTENDLPFVKDIYDYYTLHTTVVYFVHCASIDELKNYIPVGDPVYRSFIIETPEGAPCGFCYFARFKPREAFRISVELTLYLKPEFTGRGYGKQAILRLEEIIRQEGFSNIMALISGENEASIRLFEKCGFECCANIRQVAEKFGKKLDLRMYQKIISDNSHLTP,not soluble
16,MDIVSVALQRYSTKAFDPSKKLTAEEADKIKTLLQYSPSSTNSQPWHFIVASTEEGKARVAKSAAGNYTFNERKMLDASHVVVFCAKTAMDDAWLERVVDQEDADGRFATPEAKAANDKGRRFFADMHRVSLKDDHQWMAKQVYLNVGNFLLGVAAMGLDAVPIEGFDAEVLDAEFGLKEKGYTSLVVVPVGHHSVEDFNAGLPKSRLPLETTLTEV,not soluble
17,MDKDLQSIQEVRDLLAAASKAFEEYSQFSQSQIDEIVKEICEEAQKHEVELAKLANEETGFGRWEDKVLKNRLASVGVYETIKDLKTRGIINDDKEKRITEIGVPMGIIAALIPSTNPTSTTIYKIMISLKAGNAVIVSPHPNAKDSILKTAEYLIRAAERKGAPKGLIGVIKTPTLQATQELMKHKKTSLILATGGEAMVKAAYSSGTPAIGVGPGNGPSFIERSADIRKAVKRIIDSKTFDNGVICASEQSIVTEEVIKHQVADELKRQGAYFLNKDEREKVGKILMRANNTMNPKIVGKTALYVAAMAGITVPVTTKVLISEETEVSHFNPYSREKLCPVLGFYTEETWEKACEKCIEILQNEGIGHTMSMHTNNENIIREFSLKKPVSRLLVNTPAALGGVGATTNLIPAFTLGCGTVGGSATSDNIGPLNLINIRRVAYGTKELEELKNEGVCTCACELNTDTSNSKVSENDIESIIRQVLDGIYKK,not soluble
18,MDKFKGAVMVGALRLFALLPWRAVQWVGTAIGWLMWKLPNRSREVARINLSKCFPELSEPELEKLVGRSLMDIGKTLTESACAWIWPAQKSINLVREVEGLEVLKDALASGKGVVGITSHLGNWEVLNHFYCSQCKPIIFYRPPKLKAVDDLLRKQRVQLGNRVAASTKEGILSVIKEVRKGGSVGIPADPEPAESAGIFVPFCGTQALTSKFVPNMLAGGKAVGVFLHAMRLPDGSGYKVVLEAAPEAMYSTDTQTSAAAMSKVVEKYVRAYPSQYMWTMKRFKK,not soluble
19,MDKFKSMTELKELTKEGKDWEIECENRSSIVTILALHGGGIEPATTELAYTIAHCGDYNYFSFKGMRSKGNNELHVTSTHYDDQIALDLVRGSQRTVAIHGCEGNESVAYIGGSDDRLIELITESLEDIGISVREAPHHISGTQENNIVNMTQTQGGVQLELTAQLRKELFKNRKSSRKNRENKDNWDDLMYDFADAMKKAIERALEHHHHHH,soluble
20,MDKIKVGLQYWIPQHGLTRLVGKLASAKAGSLTTAVIRWFIKQYNVNMDEAKHSDPKHFKTFNEFFVRELKEGARPITEGDEIITHPADACVSQFGPIEDGQLIQAKGHNYSAQELLGGDEKLAEEFKDGSFATLYLSPRDYHRVHMPCDGTLRQMIYVPGDLFSVNPLTAENVPNLFARNERVVCIFDTEFGPMAQVLVGATIVGSIEQVWAGTITPPRGNTVYKWDYPAEGDKAVILKKGEEMGRFKLGSTVINLFAKDAIEFDVSMENGQPTVMGTPYALKKLEHHHHHH,soluble
21,MDKLIIGGIEIKNRLFVGSGKYPSNEIIKDVLEGSGSQVITLALRRVDLDNKEEDILQNIPKDVILLPNTSGATNAEEAIRIARIARAMGCGNWIKIEVISDSKYLLPDNEETIKATKVLADEGFIVLPYMCPDIYAGRRLIEAGAAAVMPLGAPIGSNRGLKTKELIQIMIDELDIPIIVDAGIGKPSQAMEAMEMGAAACLVNTAIASSEDPINMARAFKVAVEGGRLAYEAKMGRESKFGNASSPLTGFLDLEHHHHHH,not soluble
